Data from PMC10328853, “Design and preclinical evaluation of a novel apelin-based PET radiotracer targeting APJ receptor for molecular imaging of angiogenesis” (Angiogenesis, 2023).

Tests used:
APJ = conditions: cited from earlier work
Excerpt: In this context, we identified the apelin/APJ system as a relevant molecular target for angiogenesis imaging because of its implication in blood vessels formation by sprouting. The APJ receptor also known as APLNR and AGTRL1 is a class A G-protein-coupled receptor. Apelin is an endogenous ligand of this receptor. The Apelin/APJ system is described as implicated in different pathologies. High levels of APJ mRNA and protein are found respectively in endothelial cells through vessel formation and on sprouting vessels of hypoxic tissues and tumor-associated endothel ...

[1] = mouse, in vivo, iv
Procedure: Blood was collected at 2, 5, 10, 15, 20, 30, 45, 60, 75, 90, 105, and 120 min post-injection and gamma counted with decay correction. Plasmatic half-life (t1/2) was estimated by nonlinear regression. At two hours post-injection, mice were euthanatized and the main organs (heart, liver, lungs, muscle, brain, spleen, intestines, bone, pancreas, and kidneys) were collected, washed in PBS, weighted, and gamma counted. Results were decay corrected and expressed as percentage of injected dose corrected by organ weight (%ID/g).

APJ in Matrigel plug = molecular target: T1, APJ in Matrigel plug (Mus musculus, UniProt Q9WV08); experiment: In vivo specificity of PET signal, Matrigel plug mice, baseline or APJ-blocking; conditions: PET 1 h p.i., n = 5
T1 construct: probably related to avascular and acellular contents of Matrigel; from tissue; host or cells: Subcutaneous Matrigel plug in male Swiss mice
T1 sequence (Q9WV08 1-377): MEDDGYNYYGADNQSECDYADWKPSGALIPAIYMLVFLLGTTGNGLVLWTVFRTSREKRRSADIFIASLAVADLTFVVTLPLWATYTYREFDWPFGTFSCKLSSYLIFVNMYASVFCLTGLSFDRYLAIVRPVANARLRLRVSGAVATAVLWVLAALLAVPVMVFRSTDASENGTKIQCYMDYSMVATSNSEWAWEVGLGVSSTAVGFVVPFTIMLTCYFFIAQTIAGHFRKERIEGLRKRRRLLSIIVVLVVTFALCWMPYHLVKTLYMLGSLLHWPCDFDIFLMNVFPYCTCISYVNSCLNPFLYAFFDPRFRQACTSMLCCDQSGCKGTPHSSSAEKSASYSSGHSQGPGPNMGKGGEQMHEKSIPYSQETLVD
Procedure: Matrigel plugs were established by subcutaneous dorsal injections of 300 µL Matrigel (Dutscher, Bernolsheim, France) supplemented with 10% fetal bovine serum, to 9-week-old male Swiss mice (Janvier Labs, Le Genest-Saint-Isle, France, n = 12) under 2% isoflurane anesthesia. Seven Matrigel mice underwent small animal PET follow-up, and five others were involved in the in vivo specificity study as described below.
(§1) Small animal PET imaging acquisition lasted 20 min (number of iterations: 4, coincidence: 1–3) using a field of view (FOV) of 10 cm. CT parameters were fixed at 35 kV voltage, 300 ms exposure at medium zoom, acquired by semi-circular method on the same FOV as PET. CT attenuation-corrected reconstruction was performed using Nucline software (Mediso, Budapest, Hungary). […] Tissue uptake values were expressed as a mean target-to-background PET signal ratio (TBRmean) with background represented by the left gastrocnemius muscle.

in vivo [2] = conditions: Pietrain, pig, 85 MBq, total radioactivity
Procedure: Attenuation-corrected images were reconstructed using ADW software v4.6 (GE Healthcare, Chicago, Illinois, USA), and PET signal quantifications were performed on CT-based manually drawn volumes of interest (VOIs) using VivoQuant software v.3.5 (InVicro, Boston, MA, USA). Results were decay corrected and expressed as mean ± sd percentage of the injected dose (%ID).

[3] = tested on: Matrigel plug mouse model; experiment: Longitudinal PET/CT follow-up in the Matrigel plug mouse model; assay type: in vivo; conditions: Matrigel mice, n = 7
Procedure: Matrigel plugs were established by subcutaneous dorsal injections of 300 µL Matrigel (Dutscher, Bernolsheim, France) supplemented with 10% fetal bovine serum, to 9-week-old male Swiss mice (Janvier Labs, Le Genest-Saint-Isle, France, n = 12) under 2% isoflurane anesthesia. Seven Matrigel mice underwent small animal PET follow-up, and five others were involved in the in vivo specificity study as described below. […] Small animal PET imaging acquisition lasted 20 min (numbers of iterations: 4, coincidence: 1–3) using a field of view (FOV) of 10 cm. CT parameters were fixed at 35 kV voltage, 300 ms exposure at medium zoom, acquired by semi-circular method on the same FOV as PET. CT attenuation-corrected reconstruction was performed using Nucline software (Mediso, Budapest, Hungary). Tissue uptake values were expressed as a target-to-background (Matrigel-to-muscle) or as an ischemic-to-contralateral hindlimb PET signal ratio.

APJ on T84 cells = molecular target: T2, APJ on T84 cells (Homo sapiens, UniProt P35414); experiment: In vitro specificity of [68Ga]Ga-AP747 by autoradiography, with and without excess apelin-F13A; assay type: cell-based; conditions: 1 h incubation, n = 6
T2 construct: endogenous in cells; host or cells: T84 human colon adenocarcinoma cells
T2 sequence (P35414 1-380): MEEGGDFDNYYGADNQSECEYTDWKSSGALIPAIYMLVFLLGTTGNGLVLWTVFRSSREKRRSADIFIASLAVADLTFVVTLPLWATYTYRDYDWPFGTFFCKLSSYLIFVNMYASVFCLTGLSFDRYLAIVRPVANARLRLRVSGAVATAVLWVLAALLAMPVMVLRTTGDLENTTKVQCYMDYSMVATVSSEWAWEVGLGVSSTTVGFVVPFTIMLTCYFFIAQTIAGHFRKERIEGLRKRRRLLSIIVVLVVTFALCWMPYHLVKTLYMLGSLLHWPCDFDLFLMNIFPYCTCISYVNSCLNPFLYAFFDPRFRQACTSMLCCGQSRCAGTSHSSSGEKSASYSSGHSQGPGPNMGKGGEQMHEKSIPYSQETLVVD
Procedure: T84 cells were seeded at a 1.10^6 cells per well density in 24-well plates (Corning, Corning, USA) and incubated overnight with a complete medium. […] After a 1 h incubation, the medium was removed and the cells were washed 3 times with PBS (Eurobio-scientific, Les Ulis, France) and their viability assessed.

APJ in T84 tumors = molecular target: T3, APJ in T84 tumors (Homo sapiens, UniProt P35414); experiment: In vivo specificity of PET signal, T84 colon adenocarcinoma xenograft mice, baseline or APJ-blocking; parameters: species or system mouse; conditions: PET 1 h p.i., n = 3
T3 construct: Mice bearing ectopic colon adenocarcinoma xenograft; from tissue; host or cells: T84 xenograft tumour in Swiss nude mice
T3 sequence (P35414 1-380): T2 sequence (P35414 1-380)
Procedure: Human colon adenocarcinoma xenografts were established by subcutaneous dorsal injections of 1.10^6 T84 cells (100 µL, PBS) to 6-week-old male Swiss nude mice (Charles River, Saint-Germain-Nuelles, France, n = 3) under 2% isoflurane anesthesia.
as §1

[4] = tested on: hindlimb ischemia mouse model; experiment: Longitudinal PET/CT follow-up in the hindlimb ischemia mouse model; assay type: in vivo; conditions: HLI mice, day 7, PET 1 h after i.v. injection, n = 8
Excerpt: Unilateral hindlimb ischemia (HLI) was induced on 9-week-old female Swiss mice (Janvier Labs, n = 8) after femoral artery excision under 2% isoflurane anesthesia as previously described. LASER Doppler perfusion imaging (Perimed, Craponne, France) was used to assess revascularization from day 0 to day 21 after surgery. Perfusion measurements were expressed as an ischemic-to-contralateral ratio of hind limb blood flow normalized to the day of surgery. […] Small animal PET imaging acquisition lasted 20 min (numbers of iterations: 4, coincidence: 1–3) using a field of view (FOV) of 10 cm. CT parameters were fixed at 35 kV voltage, 300 ms exposure at medium zoom, acquired by semi-circular method on the same FOV as PET. CT attenuation-corrected reconstruction was performed using Nucline software (Mediso, Budapest, Hungary). Tissue uptake values were expressed as a target-to-background (Matrigel-to-muscle) or as an ischemic-to-contralateral hindlimb PET signal ratio.

in vivo [5] = conditions: male, Swiss, mouse, iv, 4.45 MBq, total radioactivity
Procedure: The quantified PET signal in organs was presented as mean ± SD percentage of the decay-corrected injected dose (%ID). Acquisition of small animal dynamic PET/CT was performed for 120 min on a NanoScan PET/CT camera (Mediso, Budapest, Hungary) under 2% isoflurane in medical air anesthesia [PET parameters: numbers of iterations: 4, coincidence: 1–3, field of view (FOV): 10 cm]. CT parameters were fixed at 35 kV voltage, 300 ms exposure at medium zoom, acquired by semi-circular method on the same FOV as PET. CT attenuation-corrected reconstruction was performed using Nucline software (Mediso, Budapest, Hungary) on the following time frames: 0–5 min, 6–10 min, 11–15 min, 16–20 min, 21–25 min, 26–30 min, 31–45 min, 46–60 min, 61–75 min, 76–90 min, 91–105 min, and 106–120 min.

[6] = 100X apelin-F13A (100 µg) i.v. 30 min before tracer

Compound: [Ala13]-Apelin-13 [apelin-F13A]
- affinity for APJ (APJ): nanomolar affinity

Compound: CSCC[C@H](NC(=O)[C@@H]1CCCN1C(=O)CNC(=O)[C@H](CCCCNC(=O)CCC(C(=O)O)N1CCN(CC(=O)O)CCN(CC(=O)O)CC1)NC(=O)[C@H](Cc1c[nH]cn1)NC(=O)[C@H](CO)NC(=O)[C@H](CC(C)C)NC(=O)[C@H](CCCNC(=N)N)NC(=O)[C@@H]1CCCN1C(=O)[C@H](CCCNC(=N)N)NC(=O)[C@H](CCC(N)=O)NC(=O)CCC(C(=O)O)N1CCN(CC(=O)O)CCN(CC(=O)O)CC1)C(=O)N1CCC[C@H]1C(=O)N[C@@H](C)C(=O)O (some centres unmarked) [[^68Ga]Ga-AP747, metal not drawn]
- Plasmatic half-life (t1/2) [1]: 13.31 min
- PET Matrigel-to-muscle ratio, blocking (APJ in Matrigel plug; [6]): 2.35 ± 0.62
- PET Matrigel-to-muscle ratio, non-blocked (APJ in Matrigel plug; i.v.): 7.29 ± 3.14
- tissue uptake dose at 2 h (in vivo [2]; PET signal in bladder): 39.4 ± 8.54 %ID
- tissue uptake dose at 2 h (in vivo [2]; PET signal in brain): 0.037 ± 0.015 %ID
- tissue uptake dose at 2 h (in vivo [2]; PET signal in heart): 0.58 ± 0.16 %ID
- tissue uptake dose at 2 h (in vivo [2]; PET signal in kidneys): 3.98 ± 0.79 %ID
- tissue uptake dose at 2 h (in vivo [2]; PET signal in liver): 1.42 ± 0.34 %ID
- tissue uptake dose at 2 h (in vivo [2]; PET signal in lungs): 1.39 ± 0.46 %ID
- target-to-background (Matrigel-to-muscle) PET signal ([3]; day 10, PET 1 h after i.v. injection): 3.78 ± 2.11
- target-to-background (Matrigel-to-muscle) PET signal ([3]; day 13, PET 1 h after i.v. injection): 4.86 ± 2.49
- target-to-background (Matrigel-to-muscle) PET signal ([3]; day 21, PET 1 h after i.v. injection): 5.00 ± 3.04
- cell-to-background autoradiography signal ratio, non-blocked (APJ on T84 cells; 1.7 MBq/10 µL per well): 1.40 ± 0.38
- cell-to-background autoradiography signal ratio, blocking (APJ on T84 cells; large excess of apelin-F13A added 10 min before tracer): 0.50 ± 0.23
- PET tumor-to-muscle ratio, blocking (APJ in T84 tumors; [6]): 1.02 ± 0.31
- PET tumor-to-muscle ratio, non-blocked (APJ in T84 tumors; i.v.): 7.93 ± 2.17
- i/c (ischemic-to-contralateral hindlimb) PET signal ratio [4]: 5.49 ± 5.97
- tissue uptake dose at 2 h (in vivo [5]; PET signal in bladder): 88.3 ± 5 %ID
- tissue uptake dose at 2 h (in vivo [5]; PET signal in brain): 0.02 ± 0.001 %ID
- tissue uptake dose at 2 h (in vivo [5]; PET signal in kidneys): 1.04 ± 0.2 %ID
- tissue uptake dose at 2 h (in vivo [5]; PET signal in liver): 0.35 ± 0.03 %ID
- tissue uptake dose at 2 h (in vivo [5]; PET signal in lungs): 0.06 ± 0.02 %ID
